Assay results: article PMC13722417 (2026)
Several values for one entry are separate records, joined by “and”; a condition that tells them apart may be missing. Equal values may be shown once.

B1: SVEP1 2261-2890 (protein)
chain: PLDCGKPPPIQNGFMKGENFEVGSKVQFFCNEGYELVGDSSWTCQKSGKWNKKSNPKCMPAKCPEPPLLENQLVLKELTTEVGVVTFSCKEGHVLQGPSVLKCLPSQQWNDSFPVCKIVLCTPPPLISFGVPIPSSALHFGSTVKYSCVGGFFLRGNSTTLCQPDGTWSSPLPECVPVECPQPEEIPNGIIDVQGLAYLSTALYTCKPGFELVGNTTTLCGENGHWLGGKPTCKAIECLKPKEILNGKFSYTDLHYGQTVTYSCNRGFRLEGPSALTCLETGDWDVDAPSCNAIHCDSPQPIENGFVEGADYSYGAIIIYSCFPGFQVAGHAMQTCEESGWSSSIPTCMPIDCGLPPHIDFGDCTKLKDDQGYFEQEDDMMEVPYVTPHPPYHLGAVAKTWENTKESPATHSSNFLYGTMVSYTCNPGYELLGNPVLICQEDGTWNGSAPSCISIECDLPTAPENGFLRFTETSMGSAVQYSCKPGHILAGSDLRLCLENRKWSGASPRCEAISCKKPNPVMNGSIKGSNYTYLSTLYYECDPGYVLNGTERRTCQDDKNWDEDEPICIPVDCSSPPVSANGQVRGDEYTFQKEIEYTCNEGFLLEGARSRVCLANGSWSGATPDCVPVR
B2: TIE1 21-760 (protein)
chain: AAVDLTLLANLRLTDPQRFFLTCVSGEAGAGRGSDAWGPPLLLEKDDRIVRTPPGPPLRLARNGSHQVTLRGFSKPSDLVGVFSCVGGAGARRTRVIYVHNSPGAHLLPDKVTHTVNKGDTAVLSARVHKEKQTDVIWKSNGSYFYTLDWHEAQDGRFLLQLPNVQPPSSGIYSATYLEASPLGSAFFRLIVRGCGAGRWGPGCTKECPGCLHGGVCHDHDGECVCPPGFTGTRCEQACREGRFGQSCQEQCPGISGCRGLTFCLPDPYGCSCGSGWRGSQCQEACAPGHFGADCRLQCQCQNGGTCDRFSGCVCPSGWHGVHCEKSDRIPQILNMASELEFNLETMPRINCAAAGNPFPVRGSIELRKPDGTVLLSTKAIVEPEKTTAEFEVPRLVLADSGFWECRVSTSGGQDSRRFKVNVKVPPVPLAAPRLLTKQSRQLVVSPLVSFSGDGPISTVRLHYRPQDSTMDWSTIVVDPSENVTLMNLRPKTGYSVRVQLSRPGEGGEGAWGPPTLMTTDCPEPLLQPWLEGWHVEGTDRLRVSWSLPLVPGPLVGDGFLLRLWDGTRGQERRENVSSPQARTALLTGLTPGTHYQLDVQLYHCTLLGPASPPAHVLLPPSGPPAPRHLHAQALSDSEIQLTWKHPEALPGPISKYVVEVQVAGGAGDPLWIDVDRPEETSTIIRGLNASTRYLFRMRASIQGLGDWSNTVEESTLGNGLQAEGPVQESRAAEEGLDQQ

How the values were obtained:
TIE1 21-760 = target: B2; test: SPR
SVEP1 919-3571 [1] = target: SVEP1 919-3571 (Homo sapiens, UniProt Q4LDE5, ANG2 present); test: ELISA
SVEP1 919-3571 [2] = target: SVEP1 919-3571 (Homo sapiens, UniProt Q4LDE5); test: ELISA
SVEP1 919-3571 [3] = target: SVEP1 919-3571 (Homo sapiens, UniProt Q4LDE5, ANG1 present); test: ELISA

Kd (TIE1 21-760) | Kd (SVEP1 919-3571 [1]) | Kd (SVEP1 919-3571 [2]) | Kd (SVEP1 919-3571 [3]) | Binder
62.5 nM |  |  |  | B1
 | 55.6 nM | 189 nM and 147 nM | 82.4 nM | B2
